Source: paper PMC7026483

Target: T1, GlxR-A131T A131T (Corynebacterium glutamicum WT (ATCC 13032?)) (UniProt Q79VI7)
T1 sequence: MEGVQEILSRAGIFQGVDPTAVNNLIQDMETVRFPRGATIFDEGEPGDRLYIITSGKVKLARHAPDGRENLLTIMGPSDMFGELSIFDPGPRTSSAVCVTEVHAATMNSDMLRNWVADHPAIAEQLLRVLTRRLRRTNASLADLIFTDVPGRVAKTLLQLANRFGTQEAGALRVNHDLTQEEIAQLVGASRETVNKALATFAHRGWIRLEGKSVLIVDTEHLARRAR
Assay: EMSA
Conditions: EMSA: 100 ng DNA, 200 nM protein, with or without 0.2 mM cAMP, 30 min, room temperature, 10% native PAGE; binding buffer as in Bussmann et al. 2009 (not …)

Sequence	binding
CTTCCTGGCGAAATGTCCGTCAAATTGTGAACCCCTTCACACCTTTGGTTAAAAGTCACTGCCCACAAGTGACTGAACCTGGCAGCGACCTCATGAATTGTTTGAAAAACATTTTTTTTGGGCATGAAAAGGGGATACAG (double strand) [ctaD promoter fragment]	binds
GGTGGAAATATCTTCGTGGGTTTCGTTTTTAGGGGCGTCAAATGTCTTTCAACTGCAACGATATGCCCGAATCCTCAGGTGGAATACCTAAAGTCTAGGCAATTGGTGTATGCCACGTCACAGACCATCAAC (double strand) [ctaCF promoter fragment]	binds
